Drawing on article PMC8342441, this text covers response for eleven substances.

The target in the experiment is β-arrestin 2-Rluc (UniProt P32121). The experiment is described as follows: BRET (β-arrestin 2 recruitment). The following applies: point at the highest AngII dose, read off a plot.
[1] abbreviates: HEK293 cells, Log[AII] = -5 M, parent: est. 0.37.
The mark [2] stands for this setting: HEK293 cells, left plot, Log[AII] = -5 M, parent: est. 0.36.
The mark [3] stands for this setting: HEK293 cells, right plot, Log[AII] = -5 M, parent: est. 0.35.
Setting [4] is: Log[AngII] = -4 M, parent: est. 0.086.

Turning to “YFP-tagged WT angiotensin II type 1 receptor (AT1 receptor) (from UniProt P30556) D2.50N”, the response under setting [1] is 0.36 ΔBRET.
Still for that read-out and setting: the value for “YFP-tagged WT angiotensin II type 1 receptor (AT1 receptor) (from UniProt P30556) Y7.53I” was 0.41 ΔBRET.
Regarding “YFP-tagged WT angiotensin II type 1 receptor (AT1 receptor) (from UniProt P30556) F7.55W”, the response under setting [2] is 0.09 ΔBRET.
In the case of “YFP-tagged WT angiotensin II type 1 receptor (AT1 receptor) (from UniProt P30556) N7.49A”, under setting [3], the response is 0.25 ΔBRET.
As to “YFP-tagged WT angiotensin II type 1 receptor (AT1 receptor) (from UniProt P30556) K8.49A; F8.50A; K8.51A; Y8.53A; F8.54A”, the response under setting [4] was 0.006 ΔBRET.
Take “YFP-tagged WT angiotensin II type 1 receptor (AT1 receptor) (from UniProt P30556) G1.49L”: under setting [2], the response is 0.05 ΔBRET.
Same read-out and setting: the value for “YFP-tagged WT angiotensin II type 1 receptor (AT1 receptor) (from UniProt P30556) F8.54W” was 0.26 ΔBRET.
Take “YFP-tagged WT angiotensin II type 1 receptor (AT1 receptor) (from UniProt P30556) N3.35A”: the response under setting [1] was 0.12 ΔBRET.
In the case of “YFP-tagged WT angiotensin II type 1 receptor (AT1 receptor) (from UniProt P30556) F1.48A; L1.52A; I1.57A”, under setting [4], the response was 0.065 ΔBRET.
For “YFP-tagged WT angiotensin II type 1 receptor (AT1 receptor) (from UniProt P30556) Y7.53A”, under setting [3], the response is 0.055 ΔBRET.
With “YFP-tagged WT angiotensin II type 1 receptor (AT1 receptor) (from UniProt P30556) N7.49A; P7.50A; F7.55A”, the response under setting [4] was 0.006 ΔBRET.
